Results taken from the nanobody polyreactivity screen of Harvey et al. (2022).

experiment: yeast display, Sf9 membrane polyspecificity reagent, FACS + sequencing; frameworks hold sequencing errors
Procedure, shortened: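 A synthetic nanobody library was expressed on Saccharomyces cerevisiae BJ5465 by galactose induction for 36–48 hours. The library was stained for 1 hour at 4 °C with 10% biotinylated, detergent-solubilized Sf9 membrane reagent and enriched with streptavidin microbeads before FACS. Low and high (top ~1%) gates were set on anti-HA fluorescence for expression and streptavidin fluorescence for reagent binding, and each polyreactivity label reflects the gate of origin.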

Sequence	polyreactivity (PSR sort gate)
QVQLVESGGGLVQAGGSLRLSCAASGSTFYYYAMGWYRQAPGKERELVASISFSGGSTYYADSVKGRFTISRDNAKNTVYLEMNRLKPEDTAVYYCGYYYWGQGTQVTVSS	low polyreactivity
QVQLVESGGGLVQAGGSLRLSCAASGSTFYYYAMGWYRQAPGKERELVASISGGGSTSYADSVKGRFTISRDNAKNTVYLQMNSLKPEDNAVYYCNADPSEYDPNYVVVFSPQKYDYCGQGTQVTVSS	low polyreactivity
QVQLVESGGGLVQAGGSLRLSCAASGSTFYYYAMGWYRQATGKERELVAAISGRGGSTYYADSVKGRFTISRDNAKNTVYLQMNSLKPEDTAVYYCNKRRAAGGFPYDYWGQGTQVTVSS	high polyreactivity
QVQLVESGGGLVQAGGSLRLSCAASGSTFYYYAMGWYRQPPGKERELVASITTGGGSTYYADSVKGRFTISRDNAKNTVYLQMNSLKPEDTAVYYCAAALAYYYWWYDYWGQGTQVTVSS	low polyreactivity
QVQLVESGGGLVQAGGSLRLSCAASGSTFYYYTMGWYRQAPGKEREFVAAITVGGGSTYYADSEKGRFTISRDNAKNTVYLQMNSLKPEDTAVYYCAKEVGRYLGTVSYEYDYWGQGTQVTVSS	high polyreactivity
QVQLVESGGGLVQAGGSLRLSCAASGSTFYYYTMGWYRQAPGKEREFVADITNRGGSTYYADSVKGRFTISRDNAKNTVYLQMNSLKPEDTAVYYCAARFSPWYWAGDYDYWGQGTQVTVSS	high polyreactivity
QVQLVESGGGLVQAGGSLRLSCAASGSTGWYDRGWYRQAPGKERELVASISSGDSTNYADSVKGRFTISRDNAKNTVYLQMNSLKPEDTAVYYCAADFNVGFVWGDDYDYWGQGTQVTVSS	low polyreactivity
QVQLVESGGGLVQAGGSLRLSCAASGSTIADKAMGWYRQAPGKERELVAAITRSGVRTYYADSVKGRFTISRDNAKNTVYLQMNSLKPEDTAVYYCAKRTYPSRIYDYWGQGTQVTVSS	low polyreactivity
QVQLVESGGGLVQAGGSLRLSCAASGSTIAFYDMGWYRQAPGKEREMVAAISQSDGDTYYADSVKGRFTISRDNAKNTVYLQMNSLKPEDTAVYYCARPSFTSGYQSYDYWGQGTQVTVSS	low polyreactivity
QVQLVESGGGLVQAGGSLRLSCAASGSTIATYTMGWYRQAPGKERELVAAISVSGSRTYYADSVKGRFTISRDNAKNTVYLQMNSLIPEDTAVYYCNADPPVKLYLYDYWGQGTQVTVSS	high polyreactivity
QVQLVESGGGLVQAGGSLRLSCAASGSTIDGYAMAWYRQAPGKERELVAAISRRGGSTYYADSVKGRFTISRDNATNTVYLLMNSLTPEDTAVYYCNRYPPRRYYARYYSWGQGTQVTVSS	high polyreactivity
QVQLVESGGGLVQAGGSLRLSCAASGSTIDTYAMGWYRLAPGKERELVAGISWSGGSTFYADSVKGRFTFSRDNAKNTVDLHMNSLKPEDTAVYYCAKQLWVGVKYDYWGQGTQVTVSS	low polyreactivity
QVQLVESGGGLVQAGGSLRLSCAASGSTIEFNAMGWYRQAPGKERELVAAISGSGASTYYADSVKGRFTISRDNAKNTVYVQMNSLKPEDTAVYYCNADSLYYDYQTVDVQALDYWGQGTQVTVSS	low polyreactivity
QVQLVESGGGLVQAGGSLRLSCAASGSTIFENVMGWYREAPRKEREFVAAINTSGRSTYYADSVKGRFTISRDNAKNTVFLQMNSLKPEDTAVDYCARDSYWEMDYWGQGTQVTVSS	low polyreactivity
QVQLVESGGGLVQAGGSLRLSCAASGSTIFGYALGSYRQAPGKERELVAASSSGGSTYYADSVKGRFTISRDNAKNTVYLQMNSLKPEDTAVYYCAATRRLKRYWAQGTQVTVSS	high polyreactivity
QVQLVESGGGLVQAGGSLRLSCAASGSTIIRNTMGWYRKAPGKERELVAAITRSGGSTFYADSVKGRFTISRDNAKNTVYLQMNSLKPEDTAVYYCAAVRSKLYYYWGQGTQVTVSS	high polyreactivity
QVQLVESGGGLVQAGGSLRLSCAASGSTIKTYATMGWYRQAPGKERELVAAITACTSTNYADSVKGRFTISRDNAKNTVYLQMNSLKPEDTAVYYGAADDYYNWYLGEPGDYWGQGTQVTVSS	low polyreactivity
QVQLVESGGGLVQAGGSLRLSCAASGSTILSNAMGWYRQAPGKERELVADITSGGSTYYADSVKGRFTISLDNAKNTVYLQMNSLKQEDTAVYYCAVRYYLRRYDYWGQGTQVTVSS	low polyreactivity
QVQLVESGGGLVQAGGSLRLSCAASGSTILYNTMGWYRQAPGKERELVATITSRGDRTYYADSVKGRFTISRDNAKNTVYLQMNSLKPEDTAVDYCAADRTDFWPYDYWGQGTQVTVSS	low polyreactivity
QVQLVESGGGLVQAGGSLRLSCAASGSTINRNAMGWYRQAPGKERELVAGISYGGGSTYADSVKGRFTISRDNAKNTVYLQMNSLKPEDTAVYYCTADFRHGHRHDMNYWGQGTQVTVSS	low polyreactivity
QVQLVESGGGLVQAGGSLRLSCAASGSTINWNAMGWYRQAPGKERELVASINRGDSTYYADSVKGRFTISRDNAKNTVYLQMNSLKPEDTAVYYCAARRYYSLRTFLYCFSKYDYWGQGTQVTVSS	high polyreactivity
QVQLVESGGGLVQAGGSLRLSCAASGSTINYNAMGWYRQAPGKERELVAAIDSGVSTNYADSVKGRFTITRDNAKNTVYLQMNSLKPEDTAVYYCNADPDYFDYWGQGTQVTVSS	low polyreactivity

Sequence	polyreactivity (PSR sort gate)
QVQLVESGGGLVQAGGSLRLSCAASGSTIPDYTMGWYRQAPGKEREFVAAISRIGGTYYADSVKGRFSISRDNAKNTVYLQMNSLKPEDTAVYSCNADPQGLSGRYHGFDYWGQGTQVTVSS	low polyreactivity
QVQLVESGGGLVQAGGSLRLSCAASGSTIPLYAMGWYRQAPGKERELVAAISRRGGRTYYADSVKGRFTISRDNAKNTVYLQMNSLKPEDTAVYYCATAVGSRVDYWGQGTQVTVSS	high polyreactivity
QVQLVESGGGLVQAGGSLRLSCAASGSTIPPYAMGWYRQAPGKERELVAAITSGGSTYYAESVKGRFTISRDNAKNTVYLQMNSLKPEDTAVYSCAASWDPWEYDYWGQGTQVTVSS	low polyreactivity
QVQLVESGGGLVQAGGSLRLSCAASGSTIPRNAMGWYRPAPGKERELVAAITSGGSTNYADSVKGRFTLSRDNAKNTVYLQINSLKPEDTAVYYCAADEQVNTQYVVWGDYWGQGTQVTVSS	low polyreactivity
QVQLVESGGGLVQAGGSLRLSCAASGSTIPSNAMGWYRQAPGKERELVASITYSDGTTRYADSVKGRFTISRDNAKNTVYLLMNSLKPEDTAVYYCNAVYYREGMDYWGLGTQVTVSS	low polyreactivity
QVQLVESGGGLVQAGGSLRLSCAASGSTIPSYAMGWYRAAPGKERELVASITYSDGPTRYADSEKGRFTISRDNAKNTVFLQMNSLKPEDTAVYYCNAVYYREGMDYWGQGNQVTVSS	low polyreactivity
QVQLVESGGGLVQAGGSLRLSCAASGSTIPYYAMGWYRPAPGKERELVARIRWNGDSTYYADSVKGRFTISRDNAKNTVYLQMNSLKPEDTAVYYCARQGYTLYRTRYRYDYWGQGTQVTASS	high polyreactivity
QVQLVESGGGLVQAGGSLRLSCAASGSTIRHYAMGWYRQAPGKERELVAAISYSGGSTYYADSVKGRFTISRYNAKNNVYLQMNSLKPEDTAVYYCAARSPSKMGYWGQGTQVTVSS	high polyreactivity
QVQLVESGGGLVQAGGSLRLSCAASGSTIRSNAMGWYRQEPGKERELVAAISRTGGRTYYADSVKGRFTISRDNAKNTVYLQMNSLKPEDTAVYYCARPDKGLEYSENYYWGQGTQVTVSS	high polyreactivity
QVQLVESGGGLVQAGGSLRLSCAASGSTISGYAMGWYRQAPGKEREFVASIRRSGGSTYYADSVKGRFTISRDNAKNTVYLQMNSLKPEDTAVYYCAKRYVVSRGDYWGQGTQVTVSS	high polyreactivity
QVQLVESGGGLVQAGGSLRLSCAASGSTISRNAMGWSRQAPGKERELVAAISWRGGRTYYADSVKGRFTISRDNAKNTVYLQMNSLKPEDTAVYYCAAEHKYRYDYWGQGTQVTVSS	low polyreactivity
QVQLVESGGGLVQAGGSLRLSCAASGSTISSYAMGWYRPAPGKERELVAANTSGGSTYYADSLKGRFTISRDNAKNSVSLQMNSLKPEDTAVYYCDLGSTTMDYWGQGTQVTVSS	low polyreactivity
QVQLVESGGGLVQAGGSLRLSCAASGSTISYYAMGWYRQAPGKERELVAAITWNGGSTYYADSVKGRFTISRDNAKNTVYLQMNSLKPEDTAVYYCAKDSYYYDYDYWGQGTQVTVSS	low polyreactivity
QVQLVESGGGLVQAGGSLRLSCAASGSTIVGYAMGWYRQAPGKERELVAAISGSGTSTYYADSVKGRFTISRDNAKNTVYLQMNSLKPEDSAVYYCNADPIFVYSSYNYWGQGTQVTVSS	low polyreactivity
QVQLVESGGGLVQAGGSLRLSCAASGSTIVRYVMGWYRQAPGKERELVAAISRRGGSTYYADSVKGRFTISRDNAKNTVYLQMNSLKPEDTAVYYCARTVGYRTLLESDSWGQGTQVTVSS	high polyreactivity
QVQLVESGGGLVQAGGSLRLSCAASGSTIVTKAMGWYRQAPGKERELVAAISFSVGRTYYADSVKGRFTISRDNAKNTVYLQMNSLKPEDTAVYYCAAGLRVTPALHSYGYWGQGTQVTVSS	high polyreactivity
QVQLVESGGGLVQAGGSLRLSCAASGSTIWSYAMGWYRQAPGKERELVASITWSGGSTYADSVKGRFTISRDNAKNTVYLQMNSLKPEDTAVYYCARESTLTYYSDDFDYWGQGTQVTVSS	low polyreactivity
QVQLVESGGGLVQAGGSLRLSCAASGSTIYGYTMGWYRQAPGKEREMVAVITSGGSTYFADSVKGRFTISRDNAKNTVYLQMNSLKPEVTAVYYCAKRYGYTAYGRPWRIGRTYDYWGQGTQVTVSS	low polyreactivity
QVQLVESGGGLVQAGGSLRLSCAASGSTIYLNAMGWYRQAPGKERELVAAIDYRGGSTYYADSVKGRFTISRDNAKNTVYLQMNSLKPEDTAVYYCNADYVYVHYQPGYYWGQGTQVTVSS	low polyreactivity
QVQLVESGGGLVQAGGSLRLSCAASGSTIYNYAMGWYRQATGKERELVAVISRSGGRTYYADSVKGRFTISRDNAKNTVYLQMNSLKPEDTAVYYCAADTYRGYDFDYWGQGTQVTVSS	high polyreactivity
QVQLVESGGGLVQAGGSLRLSCAASGSTIYPYAMGWYRQAPGKERELVAAISSGGRTYYADSVKGRFTISRDNAKNTVYLQMNSLKPEDTAVYYCAARVTKKYRRTYDYWGQGTQVTVSS	high polyreactivity
